This is an account of results in patent publication US20240076387A1 (published 2024).

“And” between values parts separate entries of the source, which are not always exact repeats. Equal entries are not always repeated.

For assay [1], the target named is T1, Flt-1 antigen (species not stated) (Homo sapiens (Human), UniProt P17948 27-656).
T1 construct: also called sFlt-1; soluble Flt-1
The assay can be described thus: Biacore.

For assay [2], the target named is T1, Flt-1 antigen (species not stated at …). Kind of assay: surface plasmon resonance (Biacore), EXP 1.
Assay [3] has the same target. The assay can be described thus: off-rate of Fabs, method not stated.
The target is the same in assay [4]. Kind of assay: kinetics of Table 7; 'increased' is said of a higher affinity (lower KD).
The target is the same in assay [5]. The assay can be described thus: kinetics, method not stated (Table 7).
For assay [6] the target is unchanged. Kind of assay: surface plasmon resonance (Biacore), EXP 2.
The target is the same in assay [7]. Kind of assay: surface plasmon resonance (Biacore); reference not named.

T1 sequence (P17948 other isoform, or with tags, fused parts or gaps limits assumed, form in doubt): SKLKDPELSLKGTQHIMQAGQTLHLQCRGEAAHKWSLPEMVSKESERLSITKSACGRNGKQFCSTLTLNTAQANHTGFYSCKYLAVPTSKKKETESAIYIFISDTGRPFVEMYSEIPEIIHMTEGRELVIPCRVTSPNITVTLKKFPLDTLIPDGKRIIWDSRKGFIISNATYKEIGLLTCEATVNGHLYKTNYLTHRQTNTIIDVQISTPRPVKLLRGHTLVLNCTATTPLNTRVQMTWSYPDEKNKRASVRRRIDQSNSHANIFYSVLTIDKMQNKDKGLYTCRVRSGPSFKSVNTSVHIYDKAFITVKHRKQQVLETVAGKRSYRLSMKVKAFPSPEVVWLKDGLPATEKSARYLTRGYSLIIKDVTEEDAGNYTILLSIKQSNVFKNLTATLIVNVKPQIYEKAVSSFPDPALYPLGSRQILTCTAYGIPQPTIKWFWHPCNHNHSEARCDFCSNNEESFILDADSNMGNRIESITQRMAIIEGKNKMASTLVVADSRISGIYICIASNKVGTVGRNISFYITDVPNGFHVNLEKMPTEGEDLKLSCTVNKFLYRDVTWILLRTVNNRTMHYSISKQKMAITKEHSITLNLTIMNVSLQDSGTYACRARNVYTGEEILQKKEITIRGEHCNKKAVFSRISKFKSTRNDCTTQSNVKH

B1: 27H9 (antibody, human IgG1, lambda, V domains shown)
VH: EVQLLESGGGLVQPGGSLRLSCAASGFTFRDYSMSWVRQAPGKGLEWVSAISWNGDSTYYAESAKGRFTISRDNSKNTLYLQMNSLRAEDTAVYYCAKSWATPIESLYYYGSDYWGQGTLVTVSS
VL: SYELTQPLSVSVALRQTARITCGGNNIGSQTAQWYQQKPGQAPVLVIYANNRRPSGIPERFSGSKSGNTATLTISRAQAEDEADYYCQVWDESTQAIVFGGGTKLTVLG
notes: also called 27H9 WT; 27H9 WT 23/07
In assay [1], B1 returned a Kd of 0.26 nM, a dissociation rate constant (koff) of 8.4e-05 s⁻¹ and a kon of 330000 M⁻¹ s⁻¹. In assay [2], the Kd is 0.23 nM and 0.26 nM; the koff was 7.9e-05 s⁻¹ and 8.4e-05 s⁻¹; the kon is 350000 M⁻¹ s⁻¹ and 330000 M⁻¹ s⁻¹.

B2: 27H9 Fab (Fab, V domains shown)
VH: EVQLLESGGGLVQPGGSLRLSCAASGFTFRDYSMSWVRQAPGKGLEWVSAISWNGDSTYYAESAKGRFTISRDNSKNTLYLQMNSLRAEDTAVYYCAKSWATPIESLYYYGSDYWGQGTLVTVSS
VL: SYELTQPLSVSVALRQTARITCGGNNIGSQTAQWYQQKPGQAPVLVIYANNRRPSGIPERFSGSKSGNTATLTISRAQAEDEADYYCQVWDESTQAIVFGGGTKLTVL
notes: also called 27H9_VH
As for B2, the “kd IMPROVEMENT (against parent 21B3)” value in assay [3] amounted to 1.12.

B3: 21B3 (antibody, V domains shown)
VH: ELQLVESGGGLVQPGGSLRLSCAASGFTFRDYSMSWVRQAPGKGLEWVSAISWNGDSTYYAESMKGRFTISRDNAKNTLYLQMNSLKSEDTAVYYCAKSWATPIESLYYYGMDYWGKGTLVTVSS
VL: SYELTQSPSVSVALRQTAKITCGGNNIGSQTAQWYQQKPGQAPVLVIYANNRRPSGIPERFSGSKSGNTATLTISGAQAEDEADYYCQVWDGSTQAIVFGGGTHLTVL
notes: also called 21B3 WT; antibody 21B3
As to B3, the “fold change of KD against parent antibody 13B4” value in assay [4] is approximately 5 fold. In assay [1], this molecule registered a Kd of 0.32 nM, a koff of 0.00017 s⁻¹ and a kon of 540000 M⁻¹ s⁻¹. In assay [5], binding was characterised by a dissociation constant (Kd) of 0.0848 nM, the off-rate constant (koff) turned out to be 4.73e-05 s⁻¹ and the kon is 558000 M⁻¹ s⁻¹. Besides, in assay [6], the Kd came out at 0.32 nM, the koff stood at 0.00017 s⁻¹ and the kon is 540000 M⁻¹ s⁻¹.

B4: 21B3 AAA (antibody, human IgG1, lambda, V domains shown)
VH: ELQLVESGGGLVQPGGSLRLSCAASGFTFRDYSMSWVRQAPGKGLEWVSAISWNGDSTYYAESMKGRFTISRDNAKNTLYLQMNSLKSEDTAVYYCAKSWATPIESLYYYGMDYWGKGTLVTVSS
VL: SYELTQSPSVSVALRQTAKITCGGNNIGSQTAQWYQQKPGQAPVLVIYANNRRPSGIPERFSGSKSGNTATLTISGAQAEDEADYYCQVWDGSTQAIVFGGGTHLTVLG
notes: AAA mutation in the Fc region
B4: in assay [6], the Kd was found to be 0.21 nM, the off-rate (koff) was found to be 0.00011 s⁻¹ and the on-rate constant (kon) worked out at 520000 M⁻¹ s⁻¹.

B5: 27H4 Fab (Fab, V domains shown)
VH: ELQLVESGGGLVQPGGSLRLSCAASGFTFRDYSMSWVRQAPGKGLEWVSAISWNGDSTYYAESLKGRFTISRDNAKNTLYLQMNSLRAEDTAVYYCAKSWATPIESLYYYGSDYWGQGTLVTVSS
VL: SYELTQPLSVSVALGQTARITCGGNNIGSQTAQWYQQKPGQAPVLVIYANNRRPSGIPERFSGSKSGNTATLTISRAQAEDEADYYCQVWEDSTQAIVFGGGTKLTVL
notes: also called 27H4_VH
With B5, the “kd IMPROVEMENT (against parent 21B3)” value in assay [3] amounted to 1.06.

B6: 25G9 Fab (Fab, V domains shown)
VH: EVQLLESGGGLVQPGGSLRLSCAASGFTFRDYSMSWVRQAPGKGLEWVSAITWSGDSTYYAESVKGRFTISRDNSKNTLYLQMNSLRAEDTAVYYCAKSWATPIESLYYYGTDYWGKGTLVTVSS
VL: SYELTQPLSVSVALRQAARITCGGNNIGSQTAQWYQQKPGQAPVLVIYANNRRPSGIPERFSGSKSGNTATLTISRAQAEDEADYYCQVWDDSTQAIVFGGGTKLTVL
notes: also called 25G9_VH
Take B6: the “kd IMPROVEMENT (against parent 21B3)” value in assay [3] is 0.97.

B7: 27H9 NG/QG (antibody, human IgG1, lambda, V domains shown)
VH: EVQLLESGGGLVQPGGSLRLSCAASGFTFRDYSMSWVRQAPGKGLEWVSAISWQGDSTYYAESAKGRFTISRDNSKNTLYLQMNSLRAEDTAVYYCAKSWATPIESLYYYGSDYWGQGTLVTVSS
VL: SYELTQPLSVSVALRQTARITCGGNNIGSQTAQWYQQKPGQAPVLVIYANNRRPSGIPERFSGSKSGNTATLTISRAQAEDEADYYCQVWDESTQAIVFGGGTKLTVLG
With B7, in assay [2], binding was characterised by a dissociation constant (Kd) of 0.36 nM, the off-rate (koff) worked out at 0.00013 s⁻¹ and the kon came to 370000 M⁻¹ s⁻¹.

B8: 27G9 Fab (Fab, V domains shown)
VH: EVQLLESGGGLVQPGGSLRLSCAASGFTFRDYSASWVRQAPGKGLEWVSAISWSGDSTYYAESLKGRFTISRDNSKNTLYLQMNSLRAEDTAVYYCAKSWATPIESLYYYGSDYWGKGTLVTVSS
VL: SYELTQPLSVSVALGQTAKITCGGNNIGSQTAQWYQQKPGQAPVLVIYANNRRPSGIPERFSGSKSGNTATLTISRAQAEDEADYYCQVWEESTQAIVFGGGTHLTVL
notes: also called 27G9_VH
Regarding B8, the “kd IMPROVEMENT (against parent 21B3)” value in assay [3] was found to be 1.3.

B9: 27H6 Fab (Fab, V domains shown)
VH: ELQLVESGGGLVQPGGSLRLSCAASGFTFSDYSASWVRQAPGKGLEWVSAISWSGDSTYYAESVKGRFTIFRDNSKNTLYLQMNSLRAEDTAVYYCAKSWATPIESLYYYGSDYWGQGTLVTVSS
VL: SYELTQPLSVSVALRQAAKITCGGNNIGSQTAQWYQQKPGQAPVLVIYANNRRPSGIPERFSGSKSGNTATLTISRAQAGDEADYYCQVWDGSTQAIVFGGGTKLTVL
notes: also called 27H6_VH
As for B9, the “kd IMPROVEMENT (against parent 21B3)” value in assay [3] stood at 0.96.

B10: 25F11 Fab (Fab, V domains shown)
VH: EVQLLESGGGLVQPGGSLRLSCAASGFTFRDYSMSWVRQAPGKGLEWVSAISWNGDSTYYAESAKGRFTISRDNSKNTLYLQMNSLRAEDTAVYYCAKSWATPIESLYYYGSDYWGQGTLVTVSS
VL: SYELTQPLSVSVALRQAARITCGGNNIGSQTAQWYQQKPGQAPVLVIYANNRRPSGIPERFSGSKSGNTATLTISRAQAEDEADYYCQVWEASTQAIVFGGGTKLTVL
notes: also called 25F11_VH
Take B10: the “kd IMPROVEMENT (against parent 21B3)” value in assay [3] is 1.

B11: 27H9 NG/NA (antibody, human IgG1, lambda)
heavy: not shown
light: SYELTQPLSVSVALRQTARITCGGNNIGSQTAQWYQQKPGQAPVLVIYANNRRPSGIPERFSGSKSGNTATLTISRAQAEDEADYYCQVWDESTQAIVFGGGTKLTVLGQPKAAPSVTLFPPSSEELQANKATLVCLISDFYPGAVTVAWKADSSPVKAGVETTTPSKQSNNKYAASSYLSLTPEQWKSHRSYSCQVTHEGSTVEKTVAPTECS
In assay [2], B11 yielded a Kd of 0.39 nM, a dissociation rate constant (koff) of 0.00011 s⁻¹ and an on-rate constant (kon) of 290000 M⁻¹ s⁻¹. In assay [6], this molecule came in with a Kd of 0.51 nM, a dissociation rate constant (koff) of 0.00015 s⁻¹ and a kon of 290000 M⁻¹ s⁻¹.

B12: 27H6 (antibody, human IgG1, lambda, V domains shown)
VH: ELQLVESGGGLVQPGGSLRLSCAASGFTFSDYSASWVRQAPGKGLEWVSAISWSGDSTYYAESVKGRFTIFRDNSKNTLYLQMNSLRAEDTAVYYCAKSWATPIESLYYYGSDYWGQGTLVTVSS
VL: SYELTQPLSVSVALRQAAKITCGGNNIGSQTAQWYQQKPGQAPVLVIYANNRRPSGIPERFSGSKSGNTATLTISRAQAGDEADYYCQVWDGSTQAIVFGGGTKLTVLG
notes: also called 27H6 WT; antibody 27H6
For the molecule B12, in assay [1], binding was put at a Kd of 0.16 nM, the koff stood at 0.00014 s⁻¹ and the kon was determined as 910000 M⁻¹ s⁻¹.

B13: 25D4 Fab (Fab, V domains shown)
VH: EVQLLESGGGLVQPGGSLRLSCAASGFTFRDYSASWVRQAPGKGLEWVSAISWNGDSTYYAESVKGRFTISRDNAKNTLYLQMNSLRAEDTAVYYCAKSWATPIESLYYYGSDYWGQGTLVTVSS
VL: SYELTQPLSVSVALGQTARITCGGNNIGSQTAQWYQQKPGQAPVLVIYANNRRPSGIPERFSGSKSGNTATLTISGAQAEDEADYYCQVWAASTQAIVFGGGTKLTVL
notes: also called 25D4_VH
With B13, in assay [3], the “kd IMPROVEMENT (against parent 21B3)” value amounted to 0.94.

B14: 27H9 NG/NA AAA (antibody, human IgG1, lambda)
heavy: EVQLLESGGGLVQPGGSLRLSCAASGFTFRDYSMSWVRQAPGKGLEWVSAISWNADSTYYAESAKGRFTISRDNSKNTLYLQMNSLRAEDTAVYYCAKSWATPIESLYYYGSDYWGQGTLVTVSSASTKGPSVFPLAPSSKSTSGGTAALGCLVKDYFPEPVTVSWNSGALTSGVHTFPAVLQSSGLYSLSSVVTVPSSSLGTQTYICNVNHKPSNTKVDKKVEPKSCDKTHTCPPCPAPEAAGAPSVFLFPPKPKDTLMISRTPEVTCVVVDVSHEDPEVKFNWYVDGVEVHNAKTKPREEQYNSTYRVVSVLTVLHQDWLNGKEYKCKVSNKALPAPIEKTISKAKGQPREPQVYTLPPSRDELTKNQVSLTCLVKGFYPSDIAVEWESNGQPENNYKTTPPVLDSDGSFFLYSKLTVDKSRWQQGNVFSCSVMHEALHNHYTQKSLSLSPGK
light: SYELTQPLSVSVALRQTARITCGGNNIGSQTAQWYQQKPGQAPVLVIYANNRRPSGIPERFSGSKSGNTATLTISRAQAEDEADYYCQVWDESTQAIVFGGGTKLTVLGQPKAAPSVTLFPPSSEELQANKATLVCLISDFYPGAVTVAWKADSSPVKAGVETTTPSKQSNNKYAASSYLSLTPEQWKSHRSYSCQVTHEGSTVEKTVAPTECS
notes: also called 27H9_NA_+_AAA; 27H9 NA + AAA
In the case of B14, in assay [7], the “fold reduced binding affinity” value is approximately 2 fold. In assay [6], this molecule came in with a Kd of 0.51 nM, a koff of 0.00015 s⁻¹ and a kon of 290000 M⁻¹ s⁻¹.

B15: 27H4 (antibody, human IgG1, lambda, V domains shown)
VH: ELQLVESGGGLVQPGGSLRLSCAASGFTFRDYSMSWVRQAPGKGLEWVSAISWNGDSTYYAESLKGRFTISRDNAKNTLYLQMNSLRAEDTAVYYCAKSWATPIESLYYYGSDYWGQGTLVTVSS
VL: SYELTQPLSVSVALGQTARITCGGNNIGSQTAQWYQQKPGQAPVLVIYANNRRPSGIPERFSGSKSGNTATLTISRAQAEDEADYYCQVWEDSTQAIVFGGGTKLTVLG
notes: also called 27H4 WT; antibody 27H4
In assay [1], B15 registered a dissociation constant (Kd) of 0.25 nM, a dissociation rate constant (koff) of 8.2e-05 s⁻¹ and a kon of 340000 M⁻¹ s⁻¹.
